The supplement of paper PMC9233669
Fewer inactive variants are shown than the library holds.

What was measured:
[1] = test system: biotinyl-Phe-oxazolone; assay: self-aminoacylation, catalytic enhancement (BFO) (fold over background); higher = more active; k-Seq, kA / k0A0; sequences stand for … in GGGAAUGGAUCCACAUCUACGAAUUC…UUCACUGCAGACUUGACGAAGCUG
How it was run: (§1)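 Mutagenized RNA pools (0.43 μM; 21-nt variable region) were treated with 2–1250 μM of each biotinyl-aminoacyl-oxazolone. Conditions were 50 μL HEPES/NaCl/KCl/MgCl2/CaCl2 buffer, 5% acetonitrile, pH 6.9–7.0, room temperature, 90 minutes. Catalytic enhancement, the median kA relative to the uncatalyzed rate, was derived from streptavidin capture, qPCR and Illumina sequencing.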

[2] = test system: biotinyl-Ile-oxazolone; assay: self-aminoacylation, catalytic enhancement (BIO) (fold over background); higher = more active; k-Seq, kA / k0A0; sequences stand for … in GGGAAUGGAUCCACAUCUACGAAUUC…UUCACUGCAGACUUGACGAAGCUG
How it was run: as §1

[3] = test system: biotinyl-Met-oxazolone; assay: self-aminoacylation, catalytic enhancement (BMO) (fold over background); higher = more active; k-Seq, kA / k0A0; sequences stand for … in GGGAAUGGAUCCACAUCUACGAAUUC…UUCACUGCAGACUUGACGAAGCUG
How it was run: as §1

[4] = test system: biotinyl-Val-oxazolone; assay: self-aminoacylation, catalytic enhancement (BVO) (fold over background); higher = more active; k-Seq, kA / k0A0; sequences stand for … in GGGAAUGGAUCCACAUCUACGAAUUC…UUCACUGCAGACUUGACGAAGCUG
How it was run: as §1

[5] = test system: biotinyl-Leu-oxazolone; assay: self-aminoacylation, catalytic enhancement (BLO) (fold over background); higher = more active; k-Seq, kA / k0A0; sequences stand for … in GGGAAUGGAUCCACAUCUACGAAUUC…UUCACUGCAGACUUGACGAAGCUG
How it was run: as §1

[6] = test system: biotinyl-Trp-oxazolone; assay: self-aminoacylation, catalytic enhancement (BWO) (fold over background); higher = more active; k-Seq, kA / k0A0; sequences stand for … in GGGAAUGGAUCCACAUCUACGAAUUC…UUCACUGCAGACUUGACGAAGCUG
How it was run: as §1

In the case of “AUUCAUCUAGGUCACCGGGUG [Fam2.2 aminoacylation ribozyme variant]”, the self-aminoacylation [1] is reported as 36.8, the self-aminoacylation [2] is reported as 3.85 and the self-aminoacylation [3] is reported as 5.35. It also gave a self-aminoacylation [4] of 3.34, a self-aminoacylation [5] of 6.82 and a self-aminoacylation [6] of 5.32.
For “AAGUUGGCUAAUACUCGCAAG [Fam3.1 aminoacylation ribozyme variant]”, the self-aminoacylation [1] was 1.44, the self-aminoacylation [2] was 1.39 and the self-aminoacylation [3] was 1.2. It also gave a self-aminoacylation [4] of 1.39, a self-aminoacylation [5] of 0.979 and a self-aminoacylation [6] of 1.45.
In the case of “CUACUUCAAAAAAUCAGUCUG [Fam1A.1 aminoacylation ribozyme variant]”, the self-aminoacylation [1] is reported as 5.75, the self-aminoacylation [2] is reported as 0.841 and the self-aminoacylation [3] is reported as 0.744. It also gave a self-aminoacylation [4] of 0.754, a self-aminoacylation [5] of 0.804 and a self-aminoacylation [6] of 2.61.
For “CUACUUCAAACAAGCGGACUG [Fam1A.1 aminoacylation ribozyme variant]”, the self-aminoacylation [1] was 0.818, the self-aminoacylation [2] was 0.91 and the self-aminoacylation [3] was 0.81. It also gave a self-aminoacylation [4] of 0.896, a self-aminoacylation [5] of 0.631 and a self-aminoacylation [6] of 0.644.
For “AUUCACCGAGGUCAUCGGGUU [Fam2.2 aminoacylation ribozyme variant]”, the self-aminoacylation [1] was 9.59, the self-aminoacylation [2] was 2.26 and the self-aminoacylation [3] was 2.61. For the same sequence, the self-aminoacylation [4] was 2.84, the self-aminoacylation [5] was 3.15 and the self-aminoacylation [6] was 2.7.
“AUUUCCCUGGUCUUCGAGUGA [Fam2.1 aminoacylation ribozyme variant]” gave a self-aminoacylation [1] of 47.9, a self-aminoacylation [2] of 4.33 and a self-aminoacylation [3] of 6.94. For the same sequence, the self-aminoacylation [4] was 4.6, the self-aminoacylation [5] was 7.28 and the self-aminoacylation [6] was 9.21.
“UUUCACCUAGGUCAUAGGGUG [Fam2.2 aminoacylation ribozyme variant]” showed a self-aminoacylation [1] of 1.69, a self-aminoacylation [2] of 1.41 and a self-aminoacylation [3] of 1.28. For the same sequence, the self-aminoacylation [4] was 1.3, the self-aminoacylation [5] was 1.38 and the self-aminoacylation [6] was 1.23.
“UAGUUUGCUAAUAGUCGCAAA [Fam3.1 aminoacylation ribozyme variant]” showed a self-aminoacylation [1] of 1.58, a self-aminoacylation [2] of 1.95 and a self-aminoacylation [3] of 1.75. The self-aminoacylation [4] was 1.38, the self-aminoacylation [5] was 1.53 and the self-aminoacylation [6] was 2.06.
Sequence “AGUACCCGGGUCAUCGAGUGA [Fam2.1 aminoacylation ribozyme variant]” has a self-aminoacylation [1] of 49.1, a self-aminoacylation [2] of 4.51 and a self-aminoacylation [3] of 7.25. The self-aminoacylation [4] was 3.98, the self-aminoacylation [5] was 7.7 and the self-aminoacylation [6] was 7.64.
With “AAGUUUGCUAAUAGACGGAAG [Fam3.1 aminoacylation ribozyme variant]” the self-aminoacylation [1] was 0.91, the self-aminoacylation [2] was 0.637 and the self-aminoacylation [3] was 0.544. For the same sequence, the self-aminoacylation [4] was 0.584, the self-aminoacylation [5] was 0.406 and the self-aminoacylation [6] was 0.764.
Work on “CUACUUCAGAGAAUCGGUCUG [Fam1A.1 aminoacylation ribozyme variant]” yielded a self-aminoacylation [1] of 0.895, a self-aminoacylation [2] of 0.846 and a self-aminoacylation [3] of 0.951. It also gave a self-aminoacylation [4] of 0.806, a self-aminoacylation [5] of 0.853 and a self-aminoacylation [6] of 0.7.
For “AUGCACCUAGGUCACCGGGUG [Fam2.2 aminoacylation ribozyme variant]”, the self-aminoacylation [1] was 25, the self-aminoacylation [2] was 3.86 and the self-aminoacylation [3] was 3.97. It also gave a self-aminoacylation [4] of 3.68, a self-aminoacylation [5] of 3.59 and a self-aminoacylation [6] of 4.46.
“AAGUUUGCUAAUCGUCGCGAG [Fam3.1 aminoacylation ribozyme variant]” showed a self-aminoacylation [1] of 1.8, a self-aminoacylation [2] of 1.04 and a self-aminoacylation [3] of 1.27. The self-aminoacylation [4] was 1.01, the self-aminoacylation [5] was 1.36 and the self-aminoacylation [6] was 1.49.
“AUUACCCUGGUCACCGAAUGA [Fam2.1 aminoacylation ribozyme variant]” gave a self-aminoacylation [1] of 0.595, a self-aminoacylation [2] of 0.992 and a self-aminoacylation [3] of 1.22. It also gave a self-aminoacylation [4] of 1.15, a self-aminoacylation [5] of 1.31 and a self-aminoacylation [6] of 0.91.
“CCGCACUACAAGCAAUCGGUC [Fam1B.1 aminoacylation ribozyme variant]” gave a self-aminoacylation [1] of 1.55, a self-aminoacylation [2] of 1.33 and a self-aminoacylation [3] of 0.932. The self-aminoacylation [4] was 1.32, the self-aminoacylation [5] was 1.02 and the self-aminoacylation [6] was 1.36.
“AUUCACAUAGGACAUCGGGUG [Fam2.2 aminoacylation ribozyme variant]” was tested, and the self-aminoacylation [1] was 17.7, the self-aminoacylation [2] was 2.84 and the self-aminoacylation [3] was 3.84. For the same sequence, the self-aminoacylation [4] was 3.22, the self-aminoacylation [5] was 4.24 and the self-aminoacylation [6] was 3.93.
With “CCACACUUCAAGGAAUCGGUA [Fam1B.1 aminoacylation ribozyme variant]” the self-aminoacylation [1] was 0.499, the self-aminoacylation [2] was 1.26 and the self-aminoacylation [3] was 1. The self-aminoacylation [4] was 1.18, the self-aminoacylation [5] was 1.23 and the self-aminoacylation [6] was 0.902.
In the case of “ACUCACCUAGGUUAUCGGGUG [Fam2.2 aminoacylation ribozyme variant]”, the self-aminoacylation [1] is reported as 46, the self-aminoacylation [2] is reported as 4.89 and the self-aminoacylation [3] is reported as 3.92. For the same sequence, the self-aminoacylation [4] was 5.05, the self-aminoacylation [5] was 5.42 and the self-aminoacylation [6] was 7.29.
In the case of “AAUACCCUGCUCAUCGAGUGA [Fam2.1 aminoacylation ribozyme variant]”, the self-aminoacylation [1] is reported as 1.69, the self-aminoacylation [2] is reported as 1.08 and the self-aminoacylation [3] is reported as 1.22. For the same sequence, the self-aminoacylation [4] was 1.3, the self-aminoacylation [5] was 1.6 and the self-aminoacylation [6] was 1.17.
Work on “UGACACUUCAAGCAAUCGGUC [Fam1B.1 aminoacylation ribozyme variant]” yielded a self-aminoacylation [1] of 21.5, a self-aminoacylation [2] of 1.84 and a self-aminoacylation [3] of 1.33. For the same sequence, the self-aminoacylation [4] was 1.37, the self-aminoacylation [5] was 1.89 and the self-aminoacylation [6] was 14.5.
In the case of “CUACUUCAAACAACCGGUCUG [Fam1A.1 aminoacylation ribozyme variant]”, the self-aminoacylation [1] is reported as 1.07, the self-aminoacylation [2] is reported as 0.874 and the self-aminoacylation [3] is reported as 0.729. It also gave a self-aminoacylation [4] of 0.845, a self-aminoacylation [5] of 0.791 and a self-aminoacylation [6] of 0.844.
“AUUACCCUCGACAUCGAGUGA [Fam2.1 aminoacylation ribozyme variant]” was tested, and the self-aminoacylation [1] was 83, the self-aminoacylation [2] was 4.58 and the self-aminoacylation [3] was 11.5. It also gave a self-aminoacylation [4] of 5.56, a self-aminoacylation [5] of 12.7 and a self-aminoacylation [6] of 14.5.
For “CCACACUACAAGCAAUCGCUC [Fam1B.1 aminoacylation ribozyme variant]”, the self-aminoacylation [1] was 1.2, the self-aminoacylation [2] was 1.22 and the self-aminoacylation [3] was 1.59. It also gave a self-aminoacylation [4] of 1.29, a self-aminoacylation [5] of 1.31 and a self-aminoacylation [6] of 1.32.
Sequence “AUUCAACUAGGGCAUCGGGUG [Fam2.2 aminoacylation ribozyme variant]” has a self-aminoacylation [1] of 22.4, a self-aminoacylation [2] of 2.7 and a self-aminoacylation [3] of 3.16. The self-aminoacylation [4] was 2.88, the self-aminoacylation [5] was 4.3 and the self-aminoacylation [6] was 2.99.
“CAACUUCAAACAAUCGGUCUU [Fam1A.1 aminoacylation ribozyme variant]” was tested, and the self-aminoacylation [1] was 45.8, the self-aminoacylation [2] was 1.59 and the self-aminoacylation [3] was 1.53. The self-aminoacylation [4] was 1.5, the self-aminoacylation [5] was 2.43 and the self-aminoacylation [6] was 27.7.
In the case of “CUACUUCGCACAAUCGGUCUG [Fam1A.1 aminoacylation ribozyme variant]”, the self-aminoacylation [1] is reported as 0.439, the self-aminoacylation [2] is reported as 0.867 and the self-aminoacylation [3] is reported as 0.94. The self-aminoacylation [4] was 0.961, the self-aminoacylation [5] was 0.999 and the self-aminoacylation [6] was 0.591.
